Assay results: patent publication US10738094B2, “Peptides and combination of peptides for use in immunotherapy against ovarian cancer and other cancers” (immatics biotechnologies GmbH, priority 2015, dated 2020)

Molecular target: HLA-A*02:01 (Homo sapiens, UniProt P04439, D140Y/D185E/D98H/E176V/E277Q/G131W/G231S/I119V/I121R/I166T/I218V/L300P/L318F/N151K/N90K/P208A/P217A/Q86G/Q94H/R138H/R169H/T345S)
Assay: MHC binding assay (UV-ligand exchange, beta2m ELISA)
Settings: binding to HLA-A*02:01 ranged by peptide exchange yield (UV-ligand exchange, β2m ELISA)
Description: Candidate peptides for T cell based therapies according to the present invention were further tested for their MHC binding capacity (affinity). The individual peptide-MHC complexes were produced by UV-ligand exchange, where a UV-sensitive peptide is cleaved upon UV-irradiation, and exchanged with the peptide of interest as analyzed. Only peptide candidates that can effectively bind and stabilize the peptide-receptive MHC molecules prevent dissociation of the MHC complexes. To determine the yield of the exchange reaction, an ELISA was performed based on the detection of the light chain (β2m) of stabilized MHC complexes. The assay was performed as generally described in Rodenko et al. (Rodenko et al., 2006).
96 well MAXISorp plates (NUNC) were coated over night with 2 ug/ml streptavidin in PBS at room temperature, washed 4× and blocked for 1 h at 37° C. in 2% BSA containing blocking buffer. […] Peptide-MHC monomers of the UV-exchange reaction were diluted 100 fold in blocking buffer. Samples were incubated for 1 h at 37° C., washed four times, incubated with 2 ug/ml HRP conjugated anti-β2m for 1 h at 37° C., washed again and detected with TMB solution that is stopped with […]. Absorption was measured at 450 nm. Candidate peptides that show a high exchange yield (preferably higher than 50%, most preferred higher than 75%) are generally preferred for a generation and production of antibodies or fragments thereof, and/or T cell receptors or fragments thereof, as they show sufficient avidity to the MHC molecules and prevent dissociation of the MHC complexes.

| Peptide exchange | Substance |
| --- | --- |
| “+++” (≥50 = +++) | 569 (KLVDRTWTL; listed as Homo sapiens) [compound 569] |
| “+++” (≥50 = +++) | 506 (KLLGKVETA; listed as Homo sapiens) [compound 506] |
| “++” (≥20% = ++) | 523 (YQIPRTFTL; listed as Homo sapiens) [compound 523] |
| “++++” (≥75% = ++++) | 621 (VLMDRLPSLL; listed as Homo sapiens) [compound 621] |
| “+++” (≥50 = +++) | 446 (QLIPALAKV; listed as Homo sapiens) [compound 446] |
| “++” (≥20% = ++) | 559 (VTVPPGPSL; listed as Homo sapiens) [compound 559] |
| “+++” (≥50 = +++) | 612 (YLYNEGLSV; listed as Homo sapiens) [compound 612] |
| “+++” (≥50 = +++) | 619 (ALQDRVPLA; listed as Homo sapiens) [compound 619] |
| “++” (≥20% = ++) | 580 (LLMENAERV; listed as Homo sapiens) [compound 580] |
| “++++” (≥75% = ++++) | 553 (SLLNQDLHWSL; listed as Homo sapiens) [compound 553] |
| “+++” (≥50 = +++) | 501 (LLDPNVKSIFV; listed as Homo sapiens) [compound 501] |
| “+++” (≥50 = +++) | 561 (YLQLTQSEL; listed as Homo sapiens) [compound 561] |
| “+++” (≥50 = +++) | 609 (ALWKQLLEL; listed as Homo sapiens) [compound 609] |
| “++” (≥20% = ++) | 453 (KLLEATSAV; listed as Homo sapiens) [compound 453] |
| “+++” (≥50 = +++) | 519 (GLLHLTLLL; listed as Homo sapiens) [compound 519] |
| “+++” (≥50 = +++) | 595 (VLLSIYPRV; listed as Homo sapiens) [compound 595] |
| “+++” (≥50 = +++) | 616 (VLIDEVESL; listed as Homo sapiens) [compound 616] |
| “+++” (≥50 = +++) | 465 (QLCDLNAEL; listed as Homo sapiens) [compound 465] |
| “+++” (≥50 = +++) | 457 (SLLPGNLVEKV; listed as Homo sapiens) [compound 457] |
| “+++” (≥50 = +++) | 503 (SLNHFTHSV; listed as Homo sapiens) [compound 503] |
| “+++” (≥50 = +++) | 486 (AVMESIQGV; listed as Homo sapiens) [compound 486] |
| “+++” (≥50 = +++) | 474 (YLDPALELGPRNV; listed as Homo sapiens) [compound 474] |
| “++” (≥20% = ++) | 440 (ALADGVTMQV; listed as Homo sapiens) [compound 440] |
| “+++” (≥50 = +++) | 587 (VMNDRLYAI; listed as Homo sapiens) [compound 587] |

More lines, now with the values behind:

| Substance | Peptide exchange |
| --- | --- |
| 287 (FLNEFFLNV; listed as Homo sapiens) [compound 287] | “+++” (≥50 = +++) |
| 301 (FLVEDLVDSL; listed as Homo sapiens) [compound 301] | “+++” (≥50 = +++) |
| 279 (ALWGGTQPLL; listed as Homo sapiens) [compound 279] | “++” (≥20% = ++) |
| 97 (SLINGSFLV; listed as Homo sapiens) [compound 97] | “+++” (≥50 = +++) |
| 149 (NLLELFVQL; listed as Homo sapiens) [compound 149] | “+++” (≥50 = +++) |
| 5 (HLTEVYPEL; listed as Homo sapiens) [compound 5] | “+++” (≥50 = +++) |
| 206 (VLQEGKLQKLAQL; listed as Homo sapiens) [compound 206] | “+++” (≥50 = +++) |
| 401 (ILLDDTGLAYI; listed as Homo sapiens) [compound 401] | “+++” (≥50 = +++) |
| 310 (FLVDTPLARA; listed as Homo sapiens) [compound 310] | “++++” (≥75% = ++++) |
| 352 (SLLELLHIYV; listed as Homo sapiens) [compound 352] | “+++” (≥50 = +++) |
| 326 (FLPEALDFV; listed as Homo sapiens) [compound 326] | “+++” (≥50 = +++) |
| 314 (ALIAEGIALV; listed as Homo sapiens) [compound 314] | “+++” (≥50 = +++) |
| 250 (ALSEEGLLVYL; listed as Homo sapiens) [compound 250] | “+++” (≥50 = +++) |
| 276 (ALFTFSPLTV; listed as Homo sapiens) [compound 276] | “+++” (≥50 = +++) |
| 155 (RVANLHFPSV; listed as Homo sapiens) [compound 155] | “+++” (≥50 = +++) |
| 9 (GAAKDLPGV; listed as Homo sapiens) [compound 9] | “++” (≥20% = ++) |
| 343 (SLLEVNEESTV; listed as Homo sapiens) [compound 343] | “+++” (≥50 = +++) |
| 153 (FLIANVLYL; listed as Homo sapiens) [compound 153] | “+” (≥10% = +) |
| 41 (SLMPHIPGL; listed as Homo sapiens) [compound 41] | “+++” (≥50 = +++) |
| 174 (ALAQYLITA; listed as Homo sapiens) [compound 174] | “+++” (≥50 = +++) |
| 183 (FGLDLVTEL; listed as Homo sapiens) [compound 183] | “+++” (≥50 = +++) |
| 80 (FLYDNLVESL; listed as Homo sapiens) [compound 80] | “++” (≥20% = ++) |
| 61 (FLQGYQLHL; listed as Homo sapiens) [compound 61] | “++++” (≥75% = ++++) |
| 205 (SLYPGTETMGL; listed as Homo sapiens) [compound 205] | “+++” (≥50 = +++) |

| Substance | Peptide exchange |
| --- | --- |
| 173 (LLDSASAGLYL; listed as Homo sapiens) [compound 173] | “+++” (≥50 = +++) |
| 433 (AMLNEPWAV; listed as Homo sapiens) [compound 433] | “+++” (≥50 = +++) |
| 426 (RLADKSVLV; listed as Homo sapiens) [compound 426] | “+++” (≥50 = +++) |
| 221 (ALYEEGLLL; listed as Homo sapiens) [compound 221] | “++” (≥20% = ++) |
| 27 (ILADIVISA; listed as Homo sapiens) [compound 27] | “+++” (≥50 = +++) |
| 47 (ILLSVPLLVV; listed as Homo sapiens) [compound 47] | “++” (≥20% = ++) |
| 355 (SIQQSIERLLV; listed as Homo sapiens) [compound 355] | “++” (≥20% = ++) |
| 129 (GLLDGGVDILL; listed as Homo sapiens) [compound 129] | “+++” (≥50 = +++) |
| 195 (GLFADLLPRL; listed as Homo sapiens) [compound 195] | “+++” (≥50 = +++) |
| 148 (ALNPEIVSV; listed as Homo sapiens) [compound 148] | “++” (≥20% = ++) |
| 42 (VLLQKIVSA; listed as Homo sapiens) [compound 42] | “+++” (≥50 = +++) |
| 357 (SMHDLVLQV; listed as Homo sapiens) [compound 357] | “+++” (≥50 = +++) |
| 12 (SLWPDPMEV; listed as Homo sapiens) [compound 12] | “+++” (≥50 = +++) |
| 242 (AIAYILQGV; listed as Homo sapiens) [compound 242] | “++” (≥20% = ++) |
| 351 (SLIPNLRNV; listed as Homo sapiens) [compound 351] | “+++” (≥50 = +++) |
| 295 (VLDRESPNV; listed as Homo sapiens) [compound 295] | “+++” (≥50 = +++) |
| 288 (NLINEINGV; listed as Homo sapiens) [compound 288] | “+++” (≥50 = +++) |
| 24 (SLSDGLEEV; listed as Homo sapiens) [compound 24] | “++” (≥20% = ++) |
| 331 (KVDTVWVNV; listed as Homo sapiens) [compound 331] | “+++” (≥50 = +++) |
| 40 (TLLVKVFSV; listed as Homo sapiens) [compound 40] | “+++” (≥50 = +++) |
| 170 (RLQETLSAA; listed as Homo sapiens) [compound 170] | “+++” (≥50 = +++) |
| 267 (ALQDFLLSV; listed as Homo sapiens) [compound 267] | “+++” (≥50 = +++) |
| 151 (KILQQLVTL; listed as Homo sapiens) [compound 151] | “+++” (≥50 = +++) |
| 131 (FVPPVTVFPSL; listed as Homo sapiens) [compound 131] | “++” (≥20% = ++) |
